Source: patent US20120328512A1 (BRACCO IMAGING S P A, published 2012)
Read-outs that look alike come from different tables or passages of the source. Bridge positions count the residues as written; N and C are the ends. Square brackets hold non-standard residues; d marks the D form. Primed or numbered codes have the meaning given here. Ends that are not written are not given here. * marks the point of attachment. 5FAM = O=C1OC2(c3ccc(O)cc3Oc3cc(O)ccc32)c2ccc(C(=O)*)cc21; CF5″ = 5-carboxyfluorescein label; Cha = N[C@@H](CC1CCCCC1)C(=O)O; CF5 = 5-carboxyfluorescein; AEEA = NCCOCCOCC(=O)O

T1: DDE
T1 chain 1: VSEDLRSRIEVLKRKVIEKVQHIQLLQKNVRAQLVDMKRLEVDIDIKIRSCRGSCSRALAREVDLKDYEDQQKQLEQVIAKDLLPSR
T1 chain 2: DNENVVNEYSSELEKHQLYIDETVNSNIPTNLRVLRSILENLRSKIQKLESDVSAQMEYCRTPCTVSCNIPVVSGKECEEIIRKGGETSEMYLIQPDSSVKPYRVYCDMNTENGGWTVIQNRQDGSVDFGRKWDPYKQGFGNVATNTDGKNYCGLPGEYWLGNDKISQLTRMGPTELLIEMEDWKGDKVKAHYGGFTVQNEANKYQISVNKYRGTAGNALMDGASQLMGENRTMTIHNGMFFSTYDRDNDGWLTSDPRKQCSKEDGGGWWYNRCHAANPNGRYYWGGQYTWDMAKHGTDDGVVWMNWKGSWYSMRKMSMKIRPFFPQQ
T1 chain 3: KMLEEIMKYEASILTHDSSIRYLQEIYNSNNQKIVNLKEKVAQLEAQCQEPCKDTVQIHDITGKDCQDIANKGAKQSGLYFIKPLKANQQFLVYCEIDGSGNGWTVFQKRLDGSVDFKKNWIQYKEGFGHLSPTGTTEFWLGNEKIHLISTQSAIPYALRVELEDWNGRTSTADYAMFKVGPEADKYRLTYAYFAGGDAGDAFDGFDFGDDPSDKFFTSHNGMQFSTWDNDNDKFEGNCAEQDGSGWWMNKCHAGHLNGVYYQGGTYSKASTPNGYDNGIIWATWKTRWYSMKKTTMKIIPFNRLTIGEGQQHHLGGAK
T1 chain 4: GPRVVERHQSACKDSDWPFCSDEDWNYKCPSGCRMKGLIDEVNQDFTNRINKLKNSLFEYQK
T1 chain 5: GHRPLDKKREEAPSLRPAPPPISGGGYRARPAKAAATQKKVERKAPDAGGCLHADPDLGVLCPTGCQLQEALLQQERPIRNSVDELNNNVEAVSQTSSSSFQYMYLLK
T1 chain 6: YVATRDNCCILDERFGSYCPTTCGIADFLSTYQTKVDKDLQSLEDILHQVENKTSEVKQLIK


Legend:
[1] = target: DDE; experiment: direct binding fluorescence polarization: CF5-labeled peptide titrated with DDE; n = 2
[2] = target: T1, DDE; experiment: as above
[3] = target: T1, DDE; experiment: competition fluorescence polarization: unlabeled peptide against Seq000-CF5 tracer on DDE; n = 2

Kd [1] | Kd [2] | Binder | other results
60 nM | – | RWQPCPAESWTFCWDPGGGK(5FAM)-NH2 (disulfide 5-13; N-terminus assumed; SMILES C[C@@H]1NC(=O)[C@@H]2CCCN2C(=O)[C@@H](NC(=O)[C@@H]2CCCN2C(=O)[C@H](CCC(N)=O)NC(=O)[C@H](Cc2c[nH]c3ccccc23)NC(=O)[C@@H](N)CCCNC(=N)N)CSSC[C@@H](C(=O)N[C@@H](Cc2c[nH]c3ccccc23)C(=O)N[C@@H](CC(=O)O)C(=O)N2CCC[C@H]2C(=O)NCC(=O)NCC(=O)NCC(=O)N[C@@H](CCCCNC(=O)c2ccc3c(c2)C(=O)OC32c3ccc(O)cc3Oc3cc(O)ccc32)C(N)=O)NC(=O)[C@H](Cc2ccccc2)NC(=O)[C@H]([C@@H](C)O)NC(=O)[C@H](Cc2c[nH]c3ccccc23)NC(=O)[C@H](CO)NC(=O)[C@H](CCC(=O)O)NC1=O) [Seq056-CF5] | –
30 nM | – | RWQPCPAESWT[Cha]CWDPGGGK(CF5)-NH2 (disulfide 5-13) [Seq057-CF5] | –
– | 250 nM | Ac-GPPGWQPCPWESWTFCWDPGGGK(CF5)-NH2 (disulfide 8-16) [Seq014-CF5] | –
– | 170 nM | Ac-WQPCPAESWT[Cha]CWDPGGGK(CF5)-NH2 (disulfide 4-12, also called Ac-WQPC*PAESWT-Cha-C*WDPGGGK(CF5)-NH2) [Seq042-CF5] | –
210 nM | – | Ac-RWQPCPAESWTFCWDPGGGK(5FAM)-NH2 (disulfide 5-13; not fully specified) [Seq049-CF5] | –
– | 470 nM | Ac-SGSGSGSGWQPCPWESWTFCWDPGGGK(CF5)-NH2 (disulfide 12-20) [Seq024-CF5] | –
– | – | H-RGWQPCPWESWTFCWDPGGGK-NH2 (disulfide 6-14) [Seq022-P] | Rel IC50 [3]: 0.511 ratio to the reference peptide
– | 310 nM | Ac-GPPGWQPCPAESWTFCWDPGGGK(CF5)-NH2 (disulfide 8-16) [Seq034-CF5] | –
50 nM | – | RGWQPCPAESWT[Cha]CWDPGGGK(CF5)-NH2 (disulfide 6-14) [Seq054-CF5] | –
– | – | H-RWQPCPWESWTFCWDPGGGK-NH2 (disulfide 5-13) [Seq023-P] | Rel IC50 [3]: 0.47 ratio to the reference peptide
80 nM | – | Ac-GWQPCPAESWT[Cha]CWDPGGGK(CF5)-NH2 (disulfide 5-13) [Seq055-CF5] | –
– | 570 nM | Ac-SGSG[AEEA]WQPCPAESWTFCWDPGGGK(CF5)-NH2 (disulfide 9-17) [Seq045-CF5] | –
– | 760 nM | Ac-KGKGKGWQPCPWESWTFCWDPGGGK(CF5)-NH2 (disulfide 10-18) [Seq026-CF5] | –
– | 710 nM | Ac-KKGWQPCPWESWTFCWDPGGGK(CF5)-NH2 (disulfide 7-15) [Seq025-CF5] | –
– | 450 nM | Ac-SGSG[AEEA]WQPCPWESWTFCWDPGGGK(CF5″)-NH2 (disulfide 9-17) [Seq017-CF5] | –
– | 520 nM | Ac-GGRGWQPCPAESWTFCWDPGGGK(CF5)-NH2 (disulfide 8-16) [Seq035-CF5] | –

Kd [1] | Kd [2] | Binder | other results
– | 220 nM | Ac-RRGGWQPCPAESWTFCWDPGGGK(CF5)-NH2 (disulfide 8-16) [Seq046-CF5] | –
240 nM | – | Ac-GWQPCPAESWTFCWDPGGGK(5FAM)-NH2 (disulfide 5-13; SMILES CC(=O)NCC(=O)N[C@@H](Cc1c[nH]c2ccccc12)C(=O)N[C@@H](CCC(N)=O)C(=O)N1CCC[C@H]1C(=O)N[C@H]1CSSC[C@@H](C(=O)N[C@@H](Cc2c[nH]c3ccccc23)C(=O)N[C@@H](CC(=O)O)C(=O)N2CCC[C@H]2C(=O)NCC(=O)NCC(=O)NCC(=O)N[C@@H](CCCCNC(=O)c2ccc3c(c2)C(=O)OC32c3ccc(O)cc3Oc3cc(O)ccc32)C(N)=O)NC(=O)[C@H](Cc2ccccc2)NC(=O)[C@H]([C@@H](C)O)NC(=O)[C@H](Cc2c[nH]c3ccccc23)NC(=O)[C@H](CO)NC(=O)[C@H](CCC(=O)O)NC(=O)[C@H](C)NC(=O)[C@@H]2CCCN2C1=O) [Seq039-CF5] | –
– | – | Ac-KKGWQPCPWESWTFCWDPGGGK-NH2 (disulfide 7-15) [Seq025-P] | Rel IC50 [3]: 0.357 ratio to the reference peptide
60 nM | – | GWQPCPAESWT[Cha]CWDPGGGK(CF5)-NH2 (disulfide 5-13) [Seq051-CF5] | –
– | 290 nM | Ac-GGRGWQPCPWESWTFCWDPGGGK(CF5)-NH2 (disulfide 8-16) [Seq015-CF5] | –
100 nM | – | Ac-RGWQPCPAESWT[Cha]CWDPGGGK(CF5)-NH2 (disulfide 6-14) [Seq053-CF5] | –
– | 390 nM | Ac-WQPCPWESWTFCWDPGGGK(CF5)-NH2 (disulfide 4-12, also called standard 5CF-labeled peptide) [Seq000-CF5] | –
110 nM | – | Ac-RWQPCPWESWTFCWDPGGGK(5FAM)-NH2 (disulfide 5-13; SMILES CC(=O)N[C@@H](CCCNC(=N)N)C(=O)N[C@@H](Cc1c[nH]c2ccccc12)C(=O)N[C@@H](CCC(N)=O)C(=O)N1CCC[C@H]1C(=O)N[C@H]1CSSC[C@@H](C(=O)N[C@@H](Cc2c[nH]c3ccccc23)C(=O)N[C@@H](CC(=O)O)C(=O)N2CCC[C@H]2C(=O)NCC(=O)NCC(=O)NCC(=O)N[C@@H](CCCCNC(=O)c2ccc3c(c2)C(=O)OC32c3ccc(O)cc3Oc3cc(O)ccc32)C(N)=O)NC(=O)[C@H](Cc2ccccc2)NC(=O)[C@H]([C@@H](C)O)NC(=O)[C@H](Cc2c[nH]c3ccccc23)NC(=O)[C@H](CO)NC(=O)[C@H](CCC(=O)O)NC(=O)[C@H](Cc2c[nH]c3ccccc23)NC(=O)[C@@H]2CCCN2C1=O) [Seq048-CF5] | –
– | – | Ac-SGSGSGSGWQPCPWESWTFCWDPGGGK-NH2 (disulfide 12-20) [Seq024-P] | Rel IC50 [3]: 0.527 ratio to the reference peptide
530 nM | – | Ac-RGWQPCPWESWTFCWDPGGGK(5FAM)-NH2 (disulfide 6-14; not fully specified) [Seq052-CF5] | –
– | – | Ac-KGKGKGWQPCPWESWTFCWDPGGGK-NH2 (disulfide 10-18) [Seq026-P] | Rel IC50 [3]: 0.595 ratio to the reference peptide
– | – | Ac-RRGGWQPCPWESWTFCWDPGGGK-NH2 (disulfide 8-16; SMILES CC(=O)N[C@@H](CCCNC(=N)N)C(=O)N[C@@H](CCCNC(=N)N)C(=O)NCC(=O)NCC(=O)N[C@@H](Cc1c[nH]c2ccccc12)C(=O)N[C@@H](CCC(N)=O)C(=O)N1CCC[C@H]1C(=O)N[C@H]1CSSC[C@@H](C(=O)N[C@@H](Cc2c[nH]c3ccccc23)C(=O)N[C@@H](CC(=O)O)C(=O)N2CCC[C@H]2C(=O)NCC(=O)NCC(=O)NCC(=O)N[C@@H](CCCCN)C(N)=O)NC(=O)[C@H](Cc2ccccc2)NC(=O)[C@H]([C@@H](C)O)NC(=O)[C@H](Cc2c[nH]c3ccccc23)NC(=O)[C@H](CO)NC(=O)[C@H](CCC(=O)O)NC(=O)[C@H](Cc2c[nH]c3ccccc23)NC(=O)[C@@H]2CCCN2C1=O) [Seq029-P] | Rel IC50 [3]: 0.125 ratio to the reference peptide
80 nM | – | Ac-RWQPCPAESWT[Cha]CWDPGGGK(CF5)-NH2 (disulfide 5-13) [Seq050-CF5] | –
– | 530 nM | Ac-SGSGSGSGWQPCPAESWTFCWDPGGGK(CF5)-NH2 (disulfide 12-20) [Seq040-CF5] | –
– | 230 nM | Ac-GWQPCPWESWTFCWDPGGGK(CF5)-NH2 (disulfide 5-13) [Seq016-CF5] | –
